Reference: the RNAGym collection of RNA variant scans (doi:10.1073/pnas.2313332121)
This sample holds only a part of the variants without activity.

B1: TPR 5TU (parent)
chain: GGAUCUUCUCGAUCUAACAAAAAAGACAAAUCUGCCACAAAGCUUGAGAGCAUCUUCGGAUGCAGAGGCGGCAGCCUUCGGUGGCGCGAUAGCGCCAACGUUCUCAACUAUGACACGCAAAACGCGUGCUCCGUUGAAUGGAGUUUAUCAUG

Variants of: B1
Assay: polymerase ribozyme fitness, log enrichment relative to wild type (log ratio); higher = more active; in vitro selection for triplet polymerase activity
How it was run: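 The heterodimeric triplet polymerase ribozyme's subunits were each mutagenized into PCR-built libraries and transcribed. Every library was selected once, in triplicate, by annealing with a biotinylated primer, the partner subunit and triplets, incubating frozen at −7 °C, gel-excising extended constructs, capturing on streptavidin beads and running RT-PCR. Input and output libraries were Illumina-sequenced, with genotypes kept only at ≥10 input reads and ≥1 read per output. Fitness, from inverse-variance-weighted replicate averages, is the base-2 logarithm of genotype enrichment over wild-type enrichment.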

Variant	polymerase ribozyme fitness (log ratio)
GGAUCUUCUCGAUCUAACAAAAAAGACAAAUCUGCCACAAAGCUUGAGAGCAUCUUCGGAUGCAAACGCGGCAGCCUUCGGUGGCGCGAUAACGCCAACGUUCUCAACUAUGACACGCAAAACGCGUGCUCCGUUGAAUGGAGUUUAUCAUG [G65A G67C G92A]	≤ -4.2
GGAUCUUCUCGAUCUAACAAAAAAGACAAAUCUGCCACAAAGCUUGAGAGCAUCUUCGGAUGCAAAGGCGGCAGCCUUCGGUGGCGCGAUAGCGCCAACGUUCUUAACUAUGACACGCAAAACGCGUGCUCCGUUGAAUGGAGUUUAUCAUG [G65A C105U]	-0.804
GGAUCUUCUCGAUCUAACAAAAAAGACAAAUCUGCCACAAAGCUUGAGAGCAUCUUCGGAUGCACAGGCGUCAGCCUUCGGUGGCGCGAUAGCGCCAACGUUCUCAACUAUGACACGCAAAACGCGUGCUCCGUUGAAUGGAGUUUAUCAUG [G65C G71U]	≤ -4.2
GGAUCUUCUCGAUCUAACAAAAAAGACAAAUCUGCCACAAAGCUUGAGAGCAUCUUCGGAUGCUGAGGCGGCAGCCUUCGGUGGCGCGAUAACGCCAACGUUCUCAACUAUGACACCCAAAACGCGUGCUCCGUUGAAUGGAGUAUAUCAUG [A64U G92A G117C U145A]	≤ -4.2
GGAUCUUCUCGAUCUAACAAAAAAGACAAAUCUGCCACAAAGCUUGAGAGCAUCUUCGGAUGCAAAGGGGGCAGCCUACGGUGGCGCGAGAGCGCAAACAUUCUCAAAUAUGACACGCAAAACGCGUGCUCCGUUGAAUGGAGUAUAUCAUG [G65A C69G U78A U90G C96A G100A C108A U145A]	≤ -4.2
GGAUCUUCUCGAUCUAACAAAAAAGACAAAUCUGCCACAAAGCUUGAGAGCAUCUUCGGAUGCGGAGGCGGCAGCCUUCGGGGGCGCGAUUGCGUCAACGUUCUCAACUUGGACACGCAAAACGCGUGCUCCGUUGAAUGGAGUUUAUCAUG [A64G U82G A91U C95U A110U U111G]	≤ -4.2
GGAUCUUCUCGAUCUAACAAAAAAGACAAAUCUGCCACAAAGCUUGAGAGCAUCUUCGGAUGCUGAGGCGGCAGCCUUCGGUGGCGUGAUAGCGCCAACCUUCUCAACUAUGACACGCAAAACGCGUGCUCCGUGGAAUGGAGUUUAUCGUG [A64U C87U G100C U135G A150G]	≤ -4.2
GGAUCUUCUCGAUCUAACAAAAAAGACAAAUCUGCCACAAAGCUUGAGAGCAUCUUCGGAUGCUGAGGCGGCAGCCUUCGGUGGCGCGAUAGCGCCAACGUUCUCAACUAUGACACGCAACACGCGUGCUCCGUUGAAUGGAAUUUAUCAUG [A64U A121C G143A]	≤ -4.2
GGAUCUUCUCGAUCUAACAAAAAAGACAAAUCUGCCACAAAGCUUGAGAGCAUCUUCGGAUGCACCGGCGGCAGCCUUCGAUGGGGCGAUAGCGCCAACGUUCUCAACUAUGACACGCAAGACGCGUGCUCCGUUGAAUGGAGUUUAUCAUG [G65C A66C G81A C85G A121G]	-4.16
GGAUCUUCUCGAUCUAACAAAAAAGACAAAUCUGCCACAAAGCUUGAGAGCAUCUUCGGAUGCGGAGGCGGCAGCCUUCGGUGGCGCGAUAGCGCCAAAGUUCUCAACUAUGACACGCAAAACGCGUGCUCCGUUGAAUGGAAUUUAUCAUG [A64G C99A G143A]	≤ -4.2
GGAUCUUCUCGAUCUAACAAAAAAGACAAAUCUGCCACAAAGCUUGAGAGCAUCUUCGGAUGCGGAGGCGGCAGCCUUCGGUGGCUCGAUAGCGCCAACGUUCUCAACUAUGACACGCAAAACGCGUGCUCCGUUGAAUGGAGUUUAUCAUG [A64G G86U]	≤ -4.2
GGAUCUUCUCGAUCUAACAAAAAAGACAAAUCUGCCACAAAGCUUGAGAGCAUCUUCGGAUGCACAGGCGGCAGCCUUCGGUGGCGCGACAGCGCCAACGUUCUCAACUAUGACACGCAAAACGCGUGCUCCGUUGAAUGGAGUUUAUCAUG [G65C U90C]	≤ -4.2
GGAUCUUCUCGAUCUAACAAAAAAGACAAAUCUGCCACAAAGCUUGAGAGCAUCUUCGGAUGCAUAGGCGGCGGCCUUCGGUGGCGCGAUAGCGCCAACGUUCUCAACUAUGACACGCAAAACGCGUGCUCCGUUGAAUGAAGUUUAUCAUG [G65U A73G G141A]	≤ -4.2
GGAUCUUCUCGAUCUAACAAAAAAGACAAAUCUGCCACAAAGCUUGAGAGCAUCUUCGGAUGCACAGGCGGCAGCCUUCGGUGGCGCGAUAGCGCCAAGGUUCUCAACUAUGACACGCAAAACGCGUGCUCCGUUGAAUGGAGUUUAUCAUG [G65C C99G]	≤ -4.2
GGAUCUUCUCGAUCUAACAAAAAAGACAAAUCUGCCACAAAGCUUGAGAGCAUCUUCGGAUGCGGAGACGGCAGCCUUCGGUGGCGCGAUAGCGCCAACGUUCUCAACUAUGACACGCAAAACGCGUGCUCCGUUGAAUGGAGUUUAUCAUG [A64G G68A]	≤ -4.2
GGAUCUUCUCGAUCUAACAAAAAAGACAAAUCUGCCACAAAGCUUGAGAGCAUCUUCGGAUGCAAAGGCGGCAGCCUUCGGUGGCGCGAUAGCGCCGAGGUUCUCAACUAUGACACGCAAAACGCGUGCUCCGUUGAAUGGAGUUUAUCAUG [G65A A97G C99G]	-3.75
GGAUCUUCUCGAUCUAACAAAAAAGACAAAUCUGCCACAAAGCUUGAGAGCAUCUUCGGAUGCGGAUGCGGCAGCCUUCGGUGUCGCGAUAGCGCCAACGUUAUCAACUAUCACUCGCAAAACGCGUGCUCCGUUGAAUGGAGUUCAUCAUG [A64G G67U G84U C103A G112C A115U U146C]	≤ -4.2
GGAUCUUCUCGAUCUAACAAAAAAGACAAAUCUGCCACAAAGCUUGAGAGCAUCUUCGGAUGCGGAGGCGGCAGCCUUCGGUGGCGCGAUAGGGCCAACGUUCUCAACUAUGACACGCAAAACGCGUGCUCCGUUGAAUGGAGUUUAUCAUG [A64G C93G]	-4.05
GGAUCUUCUCGAUCUAACAAAAAAGACAAAUCUGCCACAAAGCUUGAGAGCAUCUUCGGAUGCUGAGGCGGCAGCCUUCGGUGGCGCGAUAGCGCCAACGUUCUCAACUGUGACACGCAAAACGCGUGCUCCGUUGAAUGGAGUUUAUCAUG [A64U A110G]	≤ -4.2

Variant	polymerase ribozyme fitness (log ratio)
GGAUCUUCUCGAUCUAACAAAAAAGACAAAUCUGCCACAAAGCUUGAGAGCAUCUUCGGAUGCGGAGCCGGCAGCCUUCGGUGGCGCGAUAGCGCCAACGUUCUCAACUAUGACACGCAAAACGCGUGCUCCGUUGAAUGGGAUUUAUCAUG [A64G G68C A142G G143A]	≤ -4.2
GGAUCUUCUCGAUCUAACAAAAAAGACAAAUCUGCCACAAAGCUUGAGAGCAUCUUCGGAUGCAAAGGCGGCAGCCUUCGGUGGUGCGAUAGCGCCUACGUUCUCAACUAUGACACGCAAAACGCGUGCUCCGUUGAAUGGAGUUUAUCAUG [G65A C85U A97U]	-2.46
GGAUCUUCUCGAUCUAACAAAAAAGACAAAUCUGCCACAAAGCUUGAGAGCAUCUUCGGAUGCAAAGGCGUCAGCCUUCGGUGGAGCGAUAGCGCCAACGUUCUCAACUAUGACACGCAAAACGCGUGCUCCGUUGAAUGGAGUUUAUCAUG [G65A G71U C85A]	≤ -4.2
GGAUCUUCUCGAUCUAACAAAAAAGACAAAUCUGCCACAAAGCUUGAGAGCAUCUUCGGAUGCAAAGGCGGCAGCCUUCGGUGGCGCGAUAGUGCCAACGUUCUCAACUAUGACACGCAAAACGCGUGCUCCGUUGAAUGGAGUUUAUCAUG [G65A C93U]	-1.96
GGAUCUUCUCGAUCUAACAAAAAAGACAAAUCUGCCACAAAGCUUGAGAGCAUCUUCGGAUGCUGAGGCGGCAGCCUUCGGUGGCGCGAUAGCGCUAACGUUCUGAACUAUGACACGCAAAACGCGUGCUCCGUUGAAUGAAGUUUGUCAUG [A64U C96U C105G G141A A147G]	≤ -4.2
GGAUCUUCUCGAUCUAACAAAAAAGACAAAUCUGCCACAAAGCUUGAGAGCAUCUUCGGAUGCAAAGGCGGCAGCCUUCGGUGGAGCGAUAGCGCCAACGUUCUCAACUAUGACACGCAAAACGCGUGCUCCGUUGAAUGGAGUUUAUCAUG [G65A C85A]	-2.26
GGAUCUUCUCGAUCUAACAAAAAAGACAAAUCUGCCACAAAGCUUGAGAGCAUCUUCGGAUGCGGAGGCGGCAGGCUUCGGUGUCGCGAUAGCGCCAACGUUCUCAACUAUGACACGCAAAACGCGAGCUCCGUUGAAUGGUGUUUAUCAUG [A64G C75G G84U U127A A142U]	≤ -4.2
GGAUCUUCUCGAUCUAACAAAAAAGACAAAUCUGCCACAAAGCUUGAGAGCAUCUUCGGAUGCACAGGCGGCAGCCUUCGGUGGCGCUAUAGCGCCAACGUUCUCUACUAUGACACGCAAAACGCGUGCUCCGUUGAAUCGAGUUUAUCAUG [G65C G88U A106U G140C]	≤ -4.2
GGAUCUUCUCGAUCUAACAAAAAAGACAAAUCUGCCACAAAGCUUGAGAGCAUCUUCGGAUGCUGAGGCGGCAGCCUUCGGUGGCGCGAUAACGACAACGCUCUUAACUAUGACACGCAAAAACCGUGCUCCGUUGAAUGGAGUGUAGCAUG [A64U G92A C95A U101C C105U C123A G124C U145G U148G]	≤ -4.2
GGAUCUUCUCGAUCUAACAAAAAAGACAAAUCUGCCACAAAGCUUGAGAGCAUCUUCGGAUGCACAGACGGCAGCCUUCGGUAGCGCGAUAGCGCCAACGUUCUCAACUAUGACUCGCAAAACGCGUGCUCCGUUGAAUAGAGUUUAUCAUG [G65C G68A G83A A115U G140A]	≤ -4.2
GGAUCUUCUCGAUCUAACAAAAAAGACAAAUCUGCCACAAAGCUUGAGAGCAUCUUCGGAUGCUGAGGUGGCAGCCUUCGGUGGCGCGAUAGCGCCAACGUUCUCAACUAUGACACGCAAAACGCGUGCUCCGUUGAAUGGAGUUUAUCAUG [A64U C69U]	≤ -4.2
GGAUCUUCUCGAUCUAACAAAAAAGACAAAUCUGCCACAAAGCUUGAGAGCAUCUUCGGAUGCACAGGCGGCAGCCUUCGGUGGCGCGAUAGCGCCAACGUUCUCAACUAUGACACGCAAAACGCGUGCUCGGUUGAAUGGAGUUUAUCAUG [G65C C132G]	≤ -4.2
GGAUCUUCUCGAUCUAACAAAAAAGACAAAUCUGCCACAAAGCUUGAGAGCAUCUUCGGAUGCGGAGGCGGCAGCCUUCGGUUGCGCGAUAGCGCCAACGUUCUCAACUAUGACACGAAAAACGCGUGCUCCGUUGAGUGGAGUUUAUCAUG [A64G G83U C118A A138G]	≤ -4.2
GGAUCUUCUCGAUCUAACAAAAAAGACAAAUCUGCCACAAAGCUUGAGAGCAUCUUCGGAUGCAAAGGCGGCAGACUUCGUUGGCGCGAUAGCACCAACGUUCUUAACUAUGACACGCAAAACGCGUGCUCCGUUGAAUUGAGUUUAUCAUG [G65A C75A G81U G94A C105U G140U]	-3.7
GGAUCUUCUCGAUCUAACAAAAAAGACAAAUCUGCCACAAAGCUUGAGAGCAUCUUCGGAUGCUGAGGCGGCAGCCUUCGGUGGCGCGAUAGCGCCAACGUUCUCAACUAUGACACGCAAAACGCGUGCUCCGUUGAAUGGAGUUUAGCAUG [A64U U148G]	≤ -4.2
GGAUCUUCUCGAUCUAACAAAAAAGACAAAUCUGCCACAAAGCUUGAGAGCAUCUUCGGAUGCACAGGCGGCAGCCUUCGGUGGCGCGCUAACGCCAACGUGCUCAACUAUGACAUGCAAAACGCGUGCUCCGUUGGAUGGAGUUUAUCAUG [G65C A89C G92A U102G C116U A137G]	≤ -4.2
GGAUCUUCUCGAUCUAACAAAAAAGACAAAUCUGCCACAAAGCUUGAGAGCAUCUUCGGAUGCAUAGGCGGAAGCCUUCGGUGGAGCGAUAGCGCCAACGUUCUCAACUAUGACACGCAAAACGCGUGCUCCGUGGAAUGGAGUUUAUCAUG [G65U C72A C85A U135G]	≤ -4.2
GGAUCUUCUCGAUCUAACAAAAAAGACAAAUCUGCCACAAAGCUUGAGAGCAUCUUCGGAUGCAUCGGCGGCAGCCAUCGGUGGCGCGAUAGCGCCAACGUUCUCAACUAUGACACGCAAAACGCGUGCUCCGUUGAAUGGAGUUUCUCAUG [G65U A66C U77A A147C]	≤ -4.2
GGAUCUUCUCGAUCUAACAAAAAAGACAAAUCUGCCACAAAGCUUGAGAGCAUCUUCGGAUGCGGAGGCGGCAGCCUUCUGUGGUGCGAUAGUUCCAACGUUUUCAACUAUGACACGCAAAACGCGUGCUCCGUUGAAUGGAGUUUAUCAUG [A64G G80U C85U C93U G94U C103U]	-4.18
